The source of these data is publication PMC4643051.

Assay [1] deals with NS1^HA mutant S114A (Dengue virus type 2 (DENV-2), strain 16681). In words: co-IP.
In assay [2] the target is NS1^HA mutant W115A (Dengue virus type 2 (DENV-2), strain 16681). In words: co-IP.

Take “Envelope protein (E) of Dengue virus (from UniProt P29990) (natural protein)”: the fold reduction of co-precipitated Envelope against wild-type NS1^HA in assay [1] turned out to be 7.5 fold; in assay [2], 3.8 fold.
